Assay results as given in US20240368303A1 (ZHEJIANG SHIMAI PHARMACEUTICAL, published 2024).

Experiments:
[1] = target: T1, recombinant human GPC3 (full-length extracellular domain) (human, UniProt P51654 25-559); experiment: ELISA, GPC3 coated at 50 ng per well, anti-FLAG-HRP detection
T1 construct: extracellular domain; Bought protein coated on ELISA plates; also called human GPC3 protein
Protocol: The hexahistidine-tagged 1A1 Fab and 6A4 Fab were expressed in E. coli strain HB2151 and purified from the soluble fraction of periplasm by using the Ni-NTA resin. Then ELISA was performed by using standard protocols to measure binding affinity to recombinant human GPC3 (full-length extracellular domain). Briefly, the recombinant human GPC3 (ACROBiosystems) was coated on Corning EIA/RIA high-binding 96-well plates (Corning Inc.) at 50 ng per well overnight at 4° C. and blocked with 3% nonfat milk in PBS (pH7.4). Fivefold serially diluted antibodies were added and incubated at room temperature for 2 h. The plates were washed with PBS containing 0.05% Tween 20. Bound antibodies were detected by HRP-conjugated anti-FLAG tag antibody (Sino Biological). The assay was developed at room temperature with TMB substrate (Solarbio) and OD value was measured at 450 nm with a microplate reader.

[2] = target: T1, recombinant human GPC3 (full-length …); experiment: ELISA, GPC3 coated, biotinylated antibody, streptavidin-HRP detection
Protocol: (§1) ELISA was performed according to standard protocols, to determine binding affinity of anti-GPC3 1A1 mAb to recombinant GPC3 from human, cynomolgus, and mouse and anti-GPC3 6A4 mAb to recombinant human GPC3. Briefly, recombinant GPC3 (AcroBiosystems) was coated on Corning EIA/RIA high-binding 96-well plates (Corning Inc.) at 50 ng per well overnight at 4° C. and blocked with 3% nonfat milk in PBS (pH7.4). Fivefold serially diluted biotinylated antibodies were added and incubated at room temperature for 2 h. The plates were washed with PBS containing 0.05% Tween 20. Bound antibodies were detected by HRP-conjugated streptavidin (Sino Biological). The assay was developed at room temperature with TMB substrate (Solarbio) and monitored at 450 nm with a microplate reader. The half-maximal binding (EC₅₀) was calculated by fitting the data to the Langmuir adsorption isotherm.

recombinant mouse GPC3 = target: T2, recombinant mouse GPC3 (mouse, UniProt Q8CFZ4 25-558, limits assumed); experiment: as above
T2 construct: Bought protein; also called mouse GPC3 protein
T2 sequence (Q8CFZ4 25-558 limits assumed): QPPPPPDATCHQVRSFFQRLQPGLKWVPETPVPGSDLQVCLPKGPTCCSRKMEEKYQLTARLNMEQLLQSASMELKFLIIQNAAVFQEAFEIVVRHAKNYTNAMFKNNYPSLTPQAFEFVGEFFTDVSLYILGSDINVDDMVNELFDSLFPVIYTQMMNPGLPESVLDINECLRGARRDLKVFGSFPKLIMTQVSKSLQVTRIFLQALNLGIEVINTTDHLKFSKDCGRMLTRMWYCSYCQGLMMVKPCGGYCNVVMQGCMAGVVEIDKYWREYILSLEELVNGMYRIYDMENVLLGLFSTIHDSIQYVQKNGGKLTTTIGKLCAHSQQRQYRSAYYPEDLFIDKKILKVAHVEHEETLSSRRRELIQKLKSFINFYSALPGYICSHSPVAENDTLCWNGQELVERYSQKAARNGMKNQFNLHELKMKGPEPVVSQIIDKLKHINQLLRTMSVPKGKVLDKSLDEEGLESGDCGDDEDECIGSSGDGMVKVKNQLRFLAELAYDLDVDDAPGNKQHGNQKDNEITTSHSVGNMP
Protocol: as §1

[3] = target: T3, recombinant cynomolgus GPC3 (cynomolgus, UniProt A0A2K5VK50 24-558); experiment: as above
T3 construct: Bought protein; also called cynomolgus GPC3 protein
Protocol: as §1

B1: 6A4 Fab (Fab, V domains shown)
VH: EVQLVQSGAEVKKPGASVKVSCKASGYTFTSYAMHWVRQAPGQRLEWMGWINAGNGNTKYSQKFQGRVTITRDTSTSTAYMELRSLRSDDTAVYYCARDPSHWGQGTLVTVSS
VL: not shown
notes: Human Fab from a phage library, kappa light chain, hexahistidine-tagged, made in E. coli HB2151, detected with anti-FLAG antibody; also called Fab clone 6A4
With B1 the EC50 [1] was ~234 nM.

B2: anti-GPC3 6A4 mAb (antibody, V domains shown)
VH: EVQLVQSGAEVKKPGASVKVSCKASGYTFTSYAMHWVRQAPGQRLEWMGWINAGNGNTKYSQKFQGRVTITRDTSTSTAYMELRSLRSDDTAVYYCARDPSHWGQGTLVTVSS
VL: not shown
notes: Intact human IgG1 kappa
In the case of B2, the EC50 [2] is reported as 4.5 nM.

B3: 1A1 Fab (Fab, V domains shown)
VH: EVQLVQSGAEVKKPGASVKVSCKASGYTFTSYGISWVRQAPGQGLEWMGWISAYNGNTNYAQKLQGRVTMTTDTSTSTAYMELRSLRSDDTAVYYCARAGTPTQILRYFDWLSQPFDYWGQGTLVTVSS
VL: EIVLTQSPLSLPVTLGQPASISCRSSQSLVYSDGNTYLNWFHQRPGQSPRRLIYKVSNRDSGVPERFSGSGSGTDFTLKISRVEAEDVGVYYCMQSTHWPLTFGGGTKVEIK
notes: Human Fab from a phage library, kappa light chain, hexahistidine-tagged, made in E. coli HB2151, detected with anti-FLAG antibody; also called Fab clone 1A1; anti-GPC3 1A1 Fab
For B3, the EC50 [1] was ~190 nM.

B4: anti-GPC3 1A1 mAb (antibody, human IgG1, kappa, V domains shown)
VH: EVQLVQSGAEVKKPGASVKVSCKASGYTFTSYGISWVRQAPGQGLEWMGWISAYNGNTNYAQKLQGRVTMTTDTSTSTAYMELRSLRSDDTAVYYCARAGTPTQILRYFDWLSQPFDYWGQGTLVTVSS
VL: EIVLTQSPLSLPVTLGQPASISCRSSQSLVYSDGNTYLNWFHQRPGQSPRRLIYKVSNRDSGVPERFSGSGSGTDFTLKISRVEAEDVGVYYCMQSTHWPLTFGGGTKVEIKR
notes: Intact human IgG1 kappa, about 150 kDa on non-reducing SDS-PAGE
In the case of B4, the EC50 [2] is reported as 0.6 nM, the EC50 (recombinant mouse GPC3) is reported as 1.12 nM and the EC50 [3] is reported as 0.58 nM.
